Results published in PMC5269641.

Columns and labels:
[1] = molecular target: reaction center-light harvesting 1-PufX (RC-LH1-PufX) complex (Rhodobacter sphaeroides) (UniProt P0C0Y7); assay: atomic force microscopy; tapping mode AFM of intact native chromatophore vesicles immobilised on mica; imaging buffer 300 mM KCl/20 mM MOPS pH 7.4, with and without 10 mM MgCl2; proteins in their native membrane
[2] = molecular target: subunit of the light-harvesting 2 (LH2) complex (Rhodobacter sphaeroides); assay: atomic force microscopy; tapping mode AFM of reconstituted flat LH2 membranes (2D crystals) immobilised on a mica substrate, same approach as for chromatophores
[3] = molecular target: subunit of the light-harvesting 2 (LH2) complex (Rhodobacter sphaeroides); assay: as above; remark: listed apart in the source
[4] = molecular target: subunit of the light-harvesting 2 (LH2) complex (Rhodobacter sphaeroides); assay: atomic force microscopy; tapping mode AFM of intact native chromatophore vesicles immobilised on mica; imaging buffer 300 mM KCl/20 mM MOPS pH 7.4, with and without 10 mM MgCl2; proteins in their native membrane
[5] = molecular target: subunit of the light-harvesting 2 (LH2) complex (Rhodobacter sphaeroides); assay: as above; remark: listed apart in the source

| Substance | stoichiometry N [1] | stoichiometry N [2] | stoichiometry N [3] | stoichiometry N [4] | stoichiometry N [5] |
| --- | --- | --- | --- | --- | --- |
| reaction center-light harvesting 1-PufX (RC-LH1-PufX) complex (from UniProt P0C0Y7 1-260; P13402 1-82) | 2 | – | – | – | – |
| subunit of the light-harvesting 2 (LH2) complex | – | 8.3 | 9 | 8.6 | 9 |
